Consider 125 sequences from the supplement of paper PMC9112550, “Optimization of the antimicrobial peptide Bac7 by deep mutational scanning” (BMC Biology, 2022).

In this series the test system is Escherichia coli TOP10. As to the kind of experiment: shrunken log2 fold change of peptide-encoding DNA abundance (4.5 h post-induction vs induction); higher = less antimicrobial activity (less host growth inhibition). Particulars: time post-induction: 4.5 h; library: site-saturation at positions 5, 18, 19, 20.
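Also: peptides expressed intracellularly from a pBAD plasmid library in pooled LB shake-flask culture, induced with 0.3% L-arabinose, DNA abundance read by NGS, three biological replicates, DESeq2 with apeglm shrinkage.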

RRIRNRPPRLPRPRPRPRYNPRP: the “shrunken log2 fold change” value is -1.04.

For RRIRNRPPRLPRPRPRPATVPRP, the “shrunken log2 fold change” value is -0.17.

For RRIRGRPPRLPRPRPRPHMGPRP, the “shrunken log2 fold change” value is 0.121. As for RRIRNRPPRLPRPRPRPSFHPRP, the figure is -0.41; as for RRIRVRPPRLPRPRPRPAGDPRP, 0.778. As for RRIRYRPPRLPRPRPRPSSGPRP, the figure is 0.00646; as for RRIRRRPPRLPRPRPRPVQSPRP, 0.0557; as for RRIRARPPRLPRPRPRPDQEPRP, 0.0233. As for RRIRIRPPRLPRPRPRPIWSPRP, the figure is 0.025; as for RRIRRRPPRLPRPRPRPTEHPRP, 0.0963; as for RRIRGRPPRLPRPRPRPALGPRP, 1.11.

RRIRMRPPRLPRPRPRPAGFPRP: the “shrunken log2 fold change” value worked out at 0.733.

In the case of RRIRIRPPRLPRPRPRPIRTPRP, the “shrunken log2 fold change” value is -0.288. Turning to RRIRDRPPRLPRPRPRPNATPRP, the “shrunken log2 fold change” value was 0.0821. Under RRIRTRPPRLPRPRPRPFAAPRP stands 0.08; under RRIRMRPPRLPRPRPRPDGDPRP, 0.0211; under RRIRKRPPRLPRPRPRPGHMPRP, 0.177. Consider RRIRPRPPRLPRPRPRPLMYPRP, for which the “shrunken log2 fold change” value was -0.318. For RRIRTRPPRLPRPRPRPYTPPRP, the “shrunken log2 fold change” value was -0.34. Under RRIRPRPPRLPRPRPRPMGSPRP stands -0.0938. Under RRIRQRPPRLPRPRPRPHEPPRP stands -0.00369; under RRIRPRPPRLPRPRPRPFGCPRP, -0.144; under RRIRVRPPRLPRPRPRPCAGPRP, -0.106. Under RRIRHRPPRLPRPRPRPKQMPRP stands -0.0152; under RRIRQRPPRLPRPRPRPKVMPRP, -0.0261. In the case of RRIRTRPPRLPRPRPRPILHPRP, the “shrunken log2 fold change” value was -0.324.

For RRIRGRPPRLPRPRPRPRHMPRP, the “shrunken log2 fold change” value was 0.57. Under RRIRVRPPRLPRPRPRPTPDPRP stands 0.182; under RRIRQRPPRLPRPRPRPAYYPRP, -0.514; under RRIRDRPPRLPRPRPRPYKLPRP, -1.01. With RRIRERPPRLPRPRPRPHDKPRP, the “shrunken log2 fold change” value was -0.784. As for RRIRMRPPRLPRPRPRPFYDPRP, the figure is -0.12. Under RRIRYRPPRLPRPRPRPSVKPRP stands -0.119; under RRIRIRPPRLPRPRPRPTDIPRP, -0.359. Under RRIRTRPPRLPRPRPRPTQMPRP stands 0.451. Regarding RRIRMRPPRLPRPRPRPKDMPRP, the “shrunken log2 fold change” value stood at 0.0907. Take RRIRCRPPRLPRPRPRPCFKPRP: the “shrunken log2 fold change” value was -0.603. Regarding RRIRHRPPRLPRPRPRPIIRPRP, the “shrunken log2 fold change” value is -0.507. Under RRIRCRPPRLPRPRPRPRNQPRP stands -0.0402; under RRIRDRPPRLPRPRPRPAEYPRP, -0.491. For RRIRPRPPRLPRPRPRPLTIPRP, the “shrunken log2 fold change” value is -0.275. Turning to RRIRSRPPRLPRPRPRPKLQPRP, the “shrunken log2 fold change” value is 0.117. Under RRIRSRPPRLPRPRPRPGFVPRP stands 0.287; under RRIRIRPPRLPRPRPRPEDIPRP, -0.407. As for RRIRSRPPRLPRPRPRPDKDPRP, the figure is -0.102; as for RRIRCRPPRLPRPRPRPKIRPRP, 0.0994; as for RRIRPRPPRLPRPRPRPFFPPRP, -0.135. Under RRIRFRPPRLPRPRPRPDLSPRP stands -0.0807; under RRIRMRPPRLPRPRPRPNYVPRP, -0.536. For the sequence RRIRVRPPRLPRPRPRPVVWPRP, the “shrunken log2 fold change” value was determined as 0.385.

As for RRIRQRPPRLPRPRPRPHREPRP, the “shrunken log2 fold change” value was -0.152. As for RRIRHRPPRLPRPRPRPGMWPRP, the figure is -0.0849; as for RRIRHRPPRLPRPRPRPTCHPRP, -0.647. Under RRIRARPPRLPRPRPRPVMMPRP stands 0.0914. Under RRIRIRPPRLPRPRPRPPEGPRP stands 0.115. As for RRIRTRPPRLPRPRPRPEFYPRP, the “shrunken log2 fold change” value was -0.212. Consider RRIRNRPPRLPRPRPRPIICPRP, for which the “shrunken log2 fold change” value was -0.0922. As for RRIRNRPPRLPRPRPRPTFHPRP, the figure is -0.422; as for RRIRSRPPRLPRPRPRPMEDPRP, 0.189. Under RRIRCRPPRLPRPRPRPNVDPRP stands -0.215; under RRIRWRPPRLPRPRPRPNPMPRP, -0.176; under RRIRQRPPRLPRPRPRPKRDPRP, 0.114. Under RRIRSRPPRLPRPRPRPDDVPRP stands 0.14.

As to RRIRKRPPRLPRPRPRPVAMPRP, the “shrunken log2 fold change” value came to 1.67.

On to RRIRFRPPRLPRPRPRPIQRPRP, for which the “shrunken log2 fold change” value is -0.107.

Regarding RRIRYRPPRLPRPRPRPCCCPRP, the “shrunken log2 fold change” value is -0.211. Under RRIRERPPRLPRPRPRPGKPPRP stands 0.231. As for RRIRVRPPRLPRPRPRPSPHPRP, the figure is -0.571. On to RRIRIRPPRLPRPRPRPEDQPRP, for which the “shrunken log2 fold change” value was -0.000348. Consider RRIRSRPPRLPRPRPRPWGFPRP, for which the “shrunken log2 fold change” value is -0.0589. As for RRIRYRPPRLPRPRPRPQWDPRP, the figure is -0.842. Under RRIRNRPPRLPRPRPRPQFYPRP stands -0.475; under RRIRTRPPRLPRPRPRPLMGPRP, 0.0521.

Turning to RRIRWRPPRLPRPRPRPQCMPRP, the “shrunken log2 fold change” value is -0.157.

As for RRIRIRPPRLPRPRPRPMHAPRP, the “shrunken log2 fold change” value amounted to 0.325. As for RRIRLRPPRLPRPRPRPNIWPRP, the figure is -0.0307; as for RRIRDRPPRLPRPRPRPSSKPRP, -0.0562. Under RRIRRRPPRLPRPRPRPQFNPRP stands -0.323; under RRIRFRPPRLPRPRPRPRRGPRP, 0.435; under RRIRKRPPRLPRPRPRPPNGPRP, 0.189. Under RRIRARPPRLPRPRPRPKEFPRP stands 0.355; under RRIRERPPRLPRPRPRPWGCPRP, -0.364; under RRIRCRPPRLPRPRPRPYIYPRP, -0.945. Turning to RRIRWRPPRLPRPRPRPFDHPRP, the “shrunken log2 fold change” value is 0.124. Under RRIRARPPRLPRPRPRPSSIPRP stands 0.101; under RRIRCRPPRLPRPRPRPQYNPRP, -1.36; under RRIRCRPPRLPRPRPRPCICPRP, -0.105.

As for RRIRLRPPRLPRPRPRPSNTPRP, the “shrunken log2 fold change” value is -0.624. As for RRIRMRPPRLPRPRPRPSYSPRP, the figure is -0.157; as for RRIRGRPPRLPRPRPRPQMQPRP, 1.04; as for RRIRPRPPRLPRPRPRPFPDPRP, 0.00657. As for RRIRLRPPRLPRPRPRPKAHPRP, the figure is 0.125. As for RRIRPRPPRLPRPRPRPLTPPRP, the figure is 0.222; as for RRIRYRPPRLPRPRPRPYFYPRP, -0.49. Regarding RRIRKRPPRLPRPRPRPAQDPRP, the “shrunken log2 fold change” value is 0.679. RRIRDRPPRLPRPRPRPGRDPRP: the “shrunken log2 fold change” value was 0.193.

Turning to RRIRDRPPRLPRPRPRPFQWPRP, the “shrunken log2 fold change” value was -0.156.

For the sequence RRIRNRPPRLPRPRPRPAWEPRP, the “shrunken log2 fold change” value stood at 0.247. Regarding RRIRRRPPRLPRPRPRPHCDPRP, the “shrunken log2 fold change” value was -0.164. On to RRIRIRPPRLPRPRPRPTFIPRP, for which the “shrunken log2 fold change” value is -0.677.

Take RRIRSRPPRLPRPRPRPAASPRP: the “shrunken log2 fold change” value is -0.0449. As for RRIRIRPPRLPRPRPRPIEMPRP, the figure is -0.00843. On to RRIRNRPPRLPRPRPRPRRKPRP, for which the “shrunken log2 fold change” value was 0.0625. As for RRIRERPPRLPRPRPRPSRRPRP, the figure is -0.432; as for RRIRRRPPRLPRPRPRPCVLPRP, -0.027. In the case of RRIRGRPPRLPRPRPRPCVVPRP, the “shrunken log2 fold change” value came out at 0.293.

On to RRIRGRPPRLPRPRPRPPCGPRP, for which the “shrunken log2 fold change” value amounted to 0.554. Under RRIRRRPPRLPRPRPRPFHTPRP stands -0.0624; under RRIRHRPPRLPRPRPRPQCGPRP, -0.333.

Consider RRIRWRPPRLPRPRPRPGCDPRP, for which the “shrunken log2 fold change” value is 0.818. Take RRIRMRPPRLPRPRPRPLMFPRP: the “shrunken log2 fold change” value came to 0.0219. Under RRIRLRPPRLPRPRPRPCWPPRP stands 0.0177. As for RRIRNRPPRLPRPRPRPNTWPRP, the figure is -0.382.

Consider RRIRDRPPRLPRPRPRPLPLPRP, for which the “shrunken log2 fold change” value is -0.0937. As for RRIRSRPPRLPRPRPRPSDNPRP, the figure is -0.249; as for RRIRIRPPRLPRPRPRPSTSPRP, -0.492; as for RRIRERPPRLPRPRPRPKVTPRP, -0.114. RRIRLRPPRLPRPRPRPRYGPRP: the “shrunken log2 fold change” value was -0.0186. As for RRIRWRPPRLPRPRPRPIMKPRP, the figure is -0.0768. Under RRIRARPPRLPRPRPRPIIHPRP stands -0.216; under RRIRLRPPRLPRPRPRPPCKPRP, 0.15.

With RRIRCRPPRLPRPRPRPLSPPRP, the “shrunken log2 fold change” value is 0.107.

As to RRIRLRPPRLPRPRPRPITCPRP, the “shrunken log2 fold change” value was -0.513. RRIRWRPPRLPRPRPRPRFWPRP: the “shrunken log2 fold change” value worked out at 0.455.

Consider RRIRNRPPRLPRPRPRPAVMPRP, for which the “shrunken log2 fold change” value was -0.0474.
